# According to the supplement of paper PMC9170038:
# System: K4 kissing-loop RNA reporter
# Experiment: apparent KD of K4 kissing-loop reporter; higher = weaker reporter binding
# Details: Eterna round: R107; input ligand: none
# Protocol: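 RNA-MaP round R107: designed RNA switches with theophylline, tryptophan, arginine or FMN aptamers are transcribed on-chip within common flanks. They are titrated with a labelled K4 kissing-loop RNA reporter in RNA-MaP buffer (100 mM Tris pH 7.5, 80 mM KCl, 4 mM MgCl2), without ligand or with the indicated ligand. Median apparent KD per design.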
# 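Also: bound reporter read as fluorescence of individual clusters on recovered sequencing chips by microscopy, with normalized cluster intensities fitted with a binding model.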
row,Sequence,apparent KD of K4 kissing-loop reporter [µM]
1,UCCUGCAGUCUGCCACGAAAGUGGAUUGAUACCAGAGUCGAAAGACUCCCUUGGCAGCGAGUGAUGUUCGAAGCAGGUAAAUAAA [MatMod 1 - Jieux - Exclusion - Theophylline A],0.178
2,GCUAGCAAUGCAGGAUAUUAAAACGAGUGAUGUUCGGUACCGAGGAUGGGAAACCAUCCUCGGUAAUAAGAAGGGCAUUGCUAGC,0.194
3,CGGAGUCGCGGAAGGAGCGCUCGAUAGACAAGUUGAUCGUGCCGUGGUCGAGUGAUGUUCGAGCAGGUAGGUCGCCGUCGGUCCC [Cexeatedma],0.242
4,CGUACGGUUUCUUUCUUUCCGUACGAGUGCCGAGGACCGGUACGGCCGCCACUCGCUACAGCCUAGUGAUGUUAGGCGAUUCUUU,0.125
5,CAUACGCAUGGAGGAUAUGAGAUUUCUCAUGUCAUUUAAUAUUCUCAGUGAUGUUGAGAUUUUGGCUCAGAAGGCCAUGUGUAUG [Ex FMN B 19],0.281
6,GCUAUAGUGUUAGAUACCAGUAUCCUGCAAAGCCAUCAAAUGCAGUGAUGUUGCAUAAACUACCCUUGGCAGCUAAUUGGGCUCU [theeternabot_exclusion_KL_Theo_B_49],0.213
7,AUGUCUUAUAAACUCAUGGUUUCGAUCGAUACCAGUAGCGAGAGUUACCCUUGGCAGCGACAUGAGUGAUGUUCAUGUACGAAGA [KL-XTheoA5],0.103
8,AUUGUACAGGGAAGGAGCGUCGACCAGUGAUGUUGGAGUUAAAUACCAGUGAUGUUGGUUAGGCAGGUAGGUCGCCCUCAAGUAG [#10 K4 Arginine B Exclusion],0.141
9,CCAAUCUUUUACGAUACCAGUCUAAUAUAUUUAAUCAAAACCCUCGCCGAGUGAUGUUCGGACCCUUGGCAGCGUUUGCGAGAGG [xssgstkmullin],0.543
10,UGGAGUUGACGAAAAGUCAACUCCUGGGAAGGAGCGGACGAAAGUCCAGGUAGGUCGCUCACUACCAGUGAUGUUGGUACUUAAA,0.293
11,AAUUUAUUAACUGAUACCAGACUUUAUUAUUUGUAAAUUACUAGUGAUGUUAGUGUUUCUGUCCCUUGGCAGCAGUAUUUAUUAA [JR_SSTheophyB_Sub024],0.0903
12,CUUAGGUCAGUUACCCGAGUGAUGUUCUGUCGAGGACCGGUACGGCCGCCACUCGCUCAUUAUCGGUCUGACAAAGAGCUGGCUU [theeternabot_exclusion_KL_Trp_A_9],0.208
13,UUAUAUAUAUCAGAUACCAGCAUAAUGGAAACAAAUUAUGUUAUGAGUGAUGUUCAUGUAUGCCCUUGGCAGCUGGUAUGGGUUU [KL-XTheo-B19],0.433
14,GUUUGCCGGUCCCGGAGUGAUGUUCCGGAUACCAGCAACUUCCUUUGCCCUUGGCAGCCGUAGCUAUACCGGGUGGCAGCUUCAG [Anresoenus],0.104
15,GCAGUGAUGUUGCACGAGUAGGCUAGAGUACGAGGACCGGUACGGCCGCCACUCGUACGGAAGUCGCUAAUUUAUGGAAUGGUGA [#05 K4 Tryptophan A Same State],0.548
16,CGCCAGGGUGAAGGAUAUCCGUCUGAUUGAGCGCAGUGAUGUUGCGCGAUUCGUUCAUCGCUCGGAGGAGAAGGUCAGAUAACUC [theeternabot_sameState_KL_FMN_B_3],0.121
17,GGCAGUGAUGUUGCCAGUGGCAGAUGCGAAGGAGCGUGGUGAGACACAGGUAGGUCGCGCAUUGAAAUUGCUGUCACUAAAAUGC [#3],0.326
18,GCCGUAGAUUGAAGGAGCGGGCCGUAGUGAUGUUACGCCAAUUUAUCUUUUCUUGAUGUGGCCCAGGUAGGUCGCAAUCUACGGC,0.216
19,CUUGAUCGAGGAAGGAGCGGGCCGUCAUUGAGCGCAGUGAUGUUGCGUUCGACUAGUCGAGCCCAGGUAGGUCGCCUGGAGUAAG [Lazalaa],0.0982
20,UCGUUAAAAGCGGCCGCCACUGCCAGAGCUCUGGAAAAGGCUGGAGUGAUGUUCUGCCUAGUAGACAGGACCGGGCUAUUGGAUU [theeternabot_sameState_KL_Trp_B_29],0.609
21,UGUCAUUGGUCUGAUACCAGUUGAUGACGAAUACGUCAACUGGAGUGAUGUUCCAAUAACAACCCUUGGCAGCAGACCGAUGACU [MAT - Same State Theophlline B - Mod of Eli - D3],0.53
22,UGAUACCAGACGGCCGCCACUCCUGCAGUCAAAAGACUGCUAAAGGAAAUCGUCCAGUGAUGUUGGAGGACCGGGUCUGGUAUCU [TrypBX 16 #SwitchBubble #Palindromic #StaticStem],1.38

# Same assay, conditions: Eterna round: R107; input ligand: theophylline 20 uM
row,Sequence,apparent KD of K4 kissing-loop reporter [µM]
1,UGAUACCAGACUGAUACCAGCAAGUGAUGUUUGUUGAUCAAAAGCAGUCAAAGACUGCUUUGCCCUUGGCAGCAGUCUGGUAUCU [#10 K4 Theophylline B Exclusion],0.276
2,GGUAGCAUGGCGGCCGCCACUUACACCACGGCCCUUCUAGUGAUGUUAGAGUGGAUUAUUCCGUUAAGGACCGGGCCAUGCUACC,0.65
3,UUUCCAGAUAAGUGGGAACGCUCCAUAACAGAGGAUAUCAGAGCGCUGAGAAGGCUGUUUUACAGUGAUGUUGUAAGUGUGGAGC [#10 K4 FMN A Same State],0.283
4,AGAGUUAUGAGAGGAUAUGCGGCUAGUACUCAAAGAGUACUAGCAGCAGAGUGAUGUUCUGUGAAAGCAGAAGGUUCAUAACUCA [#06 K4 FMN B Same State],0.563
5,GAGGUAUGCGCAGUGAUGUUGCGACGAGAUACCAGUCGUUCUGUCGACCCUUGGCAGCUCCCACCAGACGUACGAGUUUGUGUUG [theeternabot_sameState_KL_Theo_A_10],0.113
6,ACACUUUACGUAGGAUAUGCGACGAGUGAUGUUCGUCAGGCGGCUUGAGCUUAAACAGGCCGUCUAGCAGAAGGACGGGCAGUGU [Diorsodi],0.194
7,AAUUUUAAUAAUAAAUAAUAAAUAAAUGAUACCAGUAUUUUUUUUUACCCUUGGCAGCGUAUAUAAGGGCAGUGAUGUUGUCAAA [whbob_SS_Theo_A_w58],0.196
8,UGGGCCGCCUGAGGAUAUAGAGACGAGUGAUGUUCGUGGAUAAGAGCCAGUGAUGUUGGGUUAUUUCUAGAAGGCGGGCGAACUU [Exclusion FMN B GF9],0.164
9,ACGUCCGGAUUGAUCGUGGGCAUGGUCGAUACCAGUAGUUUAAUCUACCCUUGGCAGCGACAUGAGUGAUGUUCAUGUGCGGUGA [#14 K4 Theophylline A Exclusion],0.402
10,UGGAGUUGACGAAAAGUCAACUCCAGAGAAGGAGCGGACGAAAGUCCAGGUAGGUCGCUCACUACCAGUGAUGUUGGUACUAAAA,0.204
11,GCGGACAUUCGCAGUGAUGUUGCGACGGAAGGAGCGGAUGAAAAUCCAGGUAGGUCGCCGACAAAAUUAAUUUUAAUGUGUUCGC [#03 K4 Arginine A Same State],0.316
12,UUAUAUAUAUCAGAUACCAGUAUAAUGGAAACAAAUUAUGUUAUGAGUGAUGUUCAUGUAUGCCCUUGGCAGCUGGUAUGGGUUU [KL-XTheo-B20],0.439
13,AAUAAUAUACAAAGGCGAACGAAUAGGGAAGGAGCGCGAUAUAACGCAGGUAGGUCGCCCAUAUUUUUAGUGAUGUUAGAGAAUA [E. Arginine A Tesla 1],0.92
14,AAAGUGUCAGCACGAGUGAUGUUCGACGAUACCAGCCUCGAUAGAGGCCCUUGGCAGCGUAAAAGUCAAGGGCUGGCACAUAAAA [#SwitchBubble 5 #K4Early],0.494
15,GGUAGCAUGGCGGCCGCCACUAUCCUUCAUGGUUGACAUUAAGGAUAGCAUAGUGAUGUUAUGAAUAGGACCGGGCCAUGCUACC,0.137
16,UUAGAGAUCUCAGGAUAUGAGUGAUGUUGAUAUCAAGAUCUGAGAUAGAAUUCUAUCUCAGAUCAAUCAGAAGGGAGAUCUCAUU [AK1.3 Exc FMN B],0.411

row,Sequence,apparent KD of K4 kissing-loop reporter [µM]
1,AAAUUUGCUCAUGAUACCAGCCAGUGAUGUUGGUUGGUCCACCGUGUCCGAACAUUAAGCGGCCCUUGGCAGCAUGAUGCGCGUA [Ininveaen],0.143
2,GUAUCGCUAGGAGGAUAUUUCAAUUCGCCUAUAAAUGGUGAUACGGAGUGAUGUUCCGAUUUACGGAAAGAAGGCCUAGUGAUAC [FMN B 8],0.298
3,AGGGCACUGGCGGCCGCCACUUUUCGUGCGAACCAAAGCUAGUGAUGUUGGCUCCCUAGUUGCAAAAGGACCGGGCCGUUCAUCU [theeternabot_sameState_KL_Trp_B_37],0.296
4,UUUUUAUGCAGUGAUGUUGCUAAUAUAACAGAGGAUAUGCAUUAAUGCAGAAGGCUGAAAUACUAUACUUUAAUAAAUUAAAUUU [JR_SSFMNA_Sub014],0.134
5,GGACGCCGGUCGGCCGCCACUCACAGCAGUGAUGUUGCUGAGAAUGUAGCGGAGUGAUGUUCCGAGAGGACCGGGACUGCAGUUU [Same State Tryptophan B GF 9],0.186
6,UCCUGCAGUCUGCCACGAAAGUGGAUUGAUACCAGAGUCGAAAGACUCCCUUGGCAGCGAGUGAUGUUCGAAGCAGGUAAAUAAA [MatMod 1 - Jieux - Exclusion - Theophylline A],0.221
7,GCUAGCAAUGCAGGAUAUUAAAACGAGUGAUGUUCGGUACCGAGGAUGGGAAACCAUCCUCGGUAAUAAGAAGGGCAUUGCUAGC,0.211
8,CGGAGUCGCGGAAGGAGCGCUCGAUAGACAAGUUGAUCGUGCCGUGGUCGAGUGAUGUUCGAGCAGGUAGGUCGCCGUCGGUCCC [Cexeatedma],0.229
9,CGUACGGUUUCUUUCUUUCCGUACGAGUGCCGAGGACCGGUACGGCCGCCACUCGCUACAGCCUAGUGAUGUUAGGCGAUUCUUU,0.163
10,CAUACGCAUGGAGGAUAUGAGAUUUCUCAUGUCAUUUAAUAUUCUCAGUGAUGUUGAGAUUUUGGCUCAGAAGGCCAUGUGUAUG [Ex FMN B 19],0.297
11,GCUAUAGUGUUAGAUACCAGUAUCCUGCAAAGCCAUCAAAUGCAGUGAUGUUGCAUAAACUACCCUUGGCAGCUAAUUGGGCUCU [theeternabot_exclusion_KL_Theo_B_49],0.213
12,AUGUCUUAUAAACUCAUGGUUUCGAUCGAUACCAGUAGCGAGAGUUACCCUUGGCAGCGACAUGAGUGAUGUUCAUGUACGAAGA [KL-XTheoA5],0.106
13,AUUGUACAGGGAAGGAGCGUCGACCAGUGAUGUUGGAGUUAAAUACCAGUGAUGUUGGUUAGGCAGGUAGGUCGCCCUCAAGUAG [#10 K4 Arginine B Exclusion],0.219
14,CCAAUCUUUUACGAUACCAGUCUAAUAUAUUUAAUCAAAACCCUCGCCGAGUGAUGUUCGGACCCUUGGCAGCGUUUGCGAGAGG [xssgstkmullin],0.452
15,UGGAGUUGACGAAAAGUCAACUCCUGGGAAGGAGCGGACGAAAGUCCAGGUAGGUCGCUCACUACCAGUGAUGUUGGUACUUAAA,0.299
16,AAUUUAUUAACUGAUACCAGACUUUAUUAUUUGUAAAUUACUAGUGAUGUUAGUGUUUCUGUCCCUUGGCAGCAGUAUUUAUUAA [JR_SSTheophyB_Sub024],0.134
